Results as given in patent publication US20040116675A1 (published 2004).

How the values were obtained:
[1] = molecular target: T1, sCD28-Fc (extracellular domains of CD28 combined with the CH2 and CH3 domains of IgG1) (human, UniProt P10747 19-152); experiment: ELISA competition on coated sCD28-Fc against MuTN228-biotin, Expt 1
T1 construct: extracellular domain; not shown: CH2 and CH3 domains of IgG1

[2] = molecular target: T1, sCD28-Fc (extracellular domains of CD28 …); experiment: ELISA competition on coated sCD28-Fc against MuTN228-biotin, Expt 2
[3] = molecular target: T2, CD28 on P815/CD28+ cells (P815 mouse mastocytoma stably transfected with CD28) (human, UniProt P10747 19-220); experiment: competition against ^125I-labeled MuTN228 on P815/CD28+ cells, Expt 1
T2 construct: whole, on cells; also called CD28 antigen; CD28 molecules on P815/CD28^+ cells

[4] = molecular target: T2, CD28 on P815/CD28+ cells (P815 mouse …); experiment: competition against ^125I-labeled MuTN228 on P815/CD28+ cells, Expt 2
[5] = molecular target: T2, CD28 on P815/CD28+ cells (P815 mouse …); experiment: competition against ^125I-labeled MuTN228 on P815/CD28+ cells, Expt 3
[6] = molecular target: T1, sCD28-Fc (extracellular domains of CD28 …); experiment: ELISA competition on coated sCD28-Fc against MuTN228-biotin, reference MuTN228
[7] = molecular target: T2, CD28 on P815/CD28+ cells (P815 mouse …); experiment: competition against ^125I-labeled MuTN228 on P815/CD28+ cells, reference MuTN228
[8] = molecular target: T1, sCD28-Fc (extracellular domains of CD28 …); experiment: ELISA competition on coated sCD28-Fc against MuTN228-biotin, average of 3 experiments (Std. Dev. 0.14)
[9] = molecular target: T2, CD28 on P815/CD28+ cells (P815 mouse …); experiment: competition against ^125I-labeled MuTN228 on P815/CD28+ cells, average of 3 experiments (St. Dev. 0.26)

- IC50 [1]: 0.37 mg/L
- IC50 [2]: 0.64 mg/L
- IC50 [3]: 2.65 nM
- IC50 [4]: 2.43 nM
- IC50 [5]: 2.13 nM
- fold less relative binding than MuTN228 [6]: 2.6 fold
- fold less apparent binding affinity than MuTN228 [7]: ~2.4 fold
- IC50 [8]: 0.5 mg/L
- IC50 [9]: 2.4 nM
B1: HuTN228 (humanized TN228-IgG2M3) (antibody, V domains shown)
VH: QVQLQESGPGLVKPSETLSLTCAVSGFSLTSYGVHWIRQPPGKGLEWLGVIWPGGGTNFNSALMSRLTISEDTSKNQVSLKLSSVTAADTAVYYCARDRAYGNYLYAMDYWGQGTLVTVSS
VL: DIQMTQSPSSLSASVGDRVTITCRASESVEYYVTSLMQWYQQKPGKAPKLLIYAASNVDSGVPSRFSGSGSGTDFTLTISSLQPEDIATYYCQQSRKVPFTFGGGTKVEIK
